Test system: occluded carotid artery
Assay: Experimental thrombosis and thrombolysis of the carotid artery (electrolytic injury, rtPA/anticoagulant combination, vessel recanalization)
Format: in vivo, mice
Conditions: rtPA therapy alone, 10 mg/kg bolus/infusion, blood flow assessed for 60 minutes
Method: Thrombosis: Electrolytic injury was used to generate in situ thrombotic occlusion of the carotid artery in anaesthetised mice, as described (Jackson et al, Nature Medicine 2005; Schoenwaelder et al, J Biol Chem, 2007). Baseline blood flow through the carotid artery was measured using an ultrasound Doppler flow probe. The flow probe was removed, and vessel injury was delivered in the presence of stasis, through placement of a distal haemostatic clamp (Micro Serrefine Clamp, 18055-05, Fine Science Tools, Canada). Delivery of an electrical current (8 mA or 28 mA for 3 minutes) was achieved using a lesion making device (Model 53500, Ugo Basile, Comerio, VA, Italy), with the injury site flushed constantly with saline to prevent tissue dehydration. […]
Thrombolysis: Intravenous thrombolysis was commenced 15 minutes following stable thrombotic vessel occlusion, as monitored with the flow probe. rtPA was administered via jugular catheter using a Harvard Apparatus syringe pump (Cat #704504; Pump Elite 11 I/W Single Syringe Pump, NSW, Australia). […] Carotid artery blood flow was assessed for 60 minutes following commencement of treatment. […] Following thrombolytic therapy, return of carotid artery blood flow was assessed using the mean blood flow recorded with LabChart software (version 7.0, ADInstruments, NSW, Australia). […]

B1: rtPA: thrombolytic agent recombinant tissue plasminogen activator (protein, UniProt P00750 36-562, looked up)
Tissue-type plasminogen …: SYQVICRDEKTQMIYQQHQSWLRPVLRSNRVEYCWCNSGRAQCHSVPVKSCSEPRCFNGGTCQQALYFSDFVCQCPEGFAGKCCEIDTRATCYEDQGISYRGTWSTAESGAECTNWNSSALAQKPYSGRRPDAIRLGLGNHNYCRNPDRDSKPWCYVFKAGKYSSEFCSTPACSEGNSDCYFGNGSAYRGTHSLTESGASCLPWNSMILIGKVYTAQNPSAQALGLGKHNYCRNPDGDAKPWCHVLKNRRLTWEYCDVPSCSTCGLRQYSQPQFRIKGGLFADIASHPWQAAIFAKHRRSPGERFLCGGILISSCWILSAAHCFQERFPPHHLTVILGRTYRVVPGEEEQKFEVEKYIVHKEFDDDTYDNDIALLQLKSDSSRCAQESSVVRTVCLPPADLQLPDWTECELSGYGKHEALSPFYSERLKEAHVRLYPSSRCTSQHLLNRTVTDNMLCAGDTRSGGPQANLHDACQGDSGGPLVCLNDGRMTLVGIISWGLGCGQKDVPGVYTKVTNYLDWIRDNMRP
In the case of B1, the vessel recanalization is reported as “remains occluded”.

From US20230416341A1, “IMPROVED THROMBIN INHIBITORS FOR TREATMENT OF THROMBOEMBOLIC CONDITIONS” (priority 2020, published 2023)
